Sequences and labels used below:
T1: human CD39 on the cell membrane (CHO-K1-human CD39 stable cell line); SK-MEL-28 melanoma cells; human CD4+ T … (human, UniProt P49961 1-510)
T1 sequence: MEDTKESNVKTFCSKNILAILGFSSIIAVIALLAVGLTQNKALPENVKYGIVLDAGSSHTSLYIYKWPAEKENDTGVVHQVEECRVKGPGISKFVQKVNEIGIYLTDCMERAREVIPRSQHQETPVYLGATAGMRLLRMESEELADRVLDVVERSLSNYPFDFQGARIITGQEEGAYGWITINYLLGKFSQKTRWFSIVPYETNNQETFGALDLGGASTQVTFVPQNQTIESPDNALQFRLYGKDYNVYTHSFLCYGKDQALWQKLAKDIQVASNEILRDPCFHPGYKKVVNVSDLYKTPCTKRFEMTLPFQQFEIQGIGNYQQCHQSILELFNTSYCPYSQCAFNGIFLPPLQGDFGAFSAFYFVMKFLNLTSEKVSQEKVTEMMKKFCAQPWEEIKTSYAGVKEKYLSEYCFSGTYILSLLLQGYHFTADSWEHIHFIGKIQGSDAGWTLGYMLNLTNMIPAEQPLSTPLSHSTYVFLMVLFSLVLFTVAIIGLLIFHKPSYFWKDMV

T2: human CD39 protein (recombinant) (human, UniProt P49961 38-478, limits assumed)
T2 sequence: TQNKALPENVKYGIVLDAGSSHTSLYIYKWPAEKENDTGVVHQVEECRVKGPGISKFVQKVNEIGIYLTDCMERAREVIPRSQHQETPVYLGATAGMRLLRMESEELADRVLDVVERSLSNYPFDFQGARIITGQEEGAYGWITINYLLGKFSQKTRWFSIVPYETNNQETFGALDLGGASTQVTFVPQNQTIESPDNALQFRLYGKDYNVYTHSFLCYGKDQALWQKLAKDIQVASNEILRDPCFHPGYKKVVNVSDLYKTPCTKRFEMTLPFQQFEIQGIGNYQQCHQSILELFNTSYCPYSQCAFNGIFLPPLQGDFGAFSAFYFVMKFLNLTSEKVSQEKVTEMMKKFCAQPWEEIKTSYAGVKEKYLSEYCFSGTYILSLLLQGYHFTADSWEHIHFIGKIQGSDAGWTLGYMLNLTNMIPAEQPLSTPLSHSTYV

T3: cynomolgus monkey CD39 on CHO-K1 cells (cynomolgus monkey, UniProt A0A7N9DGH8 1-510)
T3 construct: whole, on cells; also called CHO-K1-cyCD39; CHO-K1-cyno CD39
T3 sequence: T1 sequence with V47I, F94Y, V221I, I230T, I329V, K368N, A391S, F489V, T490I

T4: huCD39-ECD-His (human, UniProt P49961 38-478)
T4 construct: also called C-terminally hexahistidine-tagged human CD39 extracellular domain
T4 sequence: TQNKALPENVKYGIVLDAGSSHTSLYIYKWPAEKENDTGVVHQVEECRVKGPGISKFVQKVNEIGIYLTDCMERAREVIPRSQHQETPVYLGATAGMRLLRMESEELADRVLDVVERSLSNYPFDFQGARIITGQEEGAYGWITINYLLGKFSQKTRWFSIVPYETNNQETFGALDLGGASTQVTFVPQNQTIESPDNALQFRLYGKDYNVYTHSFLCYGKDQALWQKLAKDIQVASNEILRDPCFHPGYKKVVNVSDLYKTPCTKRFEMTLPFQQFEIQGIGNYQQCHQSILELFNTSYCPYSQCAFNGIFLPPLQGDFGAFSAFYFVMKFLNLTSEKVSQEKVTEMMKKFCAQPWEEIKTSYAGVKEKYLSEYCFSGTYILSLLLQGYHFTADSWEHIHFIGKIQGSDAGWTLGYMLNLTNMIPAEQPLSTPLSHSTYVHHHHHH

B1: HuEM0004-38-22 (antibody, human IgG1, kappa, L234A L235A, V domains shown)
VH: EVQLVQSGAEVKKPGASVKVSCKASGYTFTSFWMHWVRQAPGQGLEWMGNINPRNAATKYNEKFRSRVTLTADKSISTAYMELSRLRSDDTAVYYCAREDYDEIYYAMDSWGQGTTVTVSS
VL: ENVLTQSPATLSLSPGERATLSCSASSSVIYMYWFQQKPGQSPRVLIYDTSNLASGVPARFSGSGSGTDYTLTISSLEPEDFAVYYCQQWSTYPLTFGQGTKLEIKR
notes: humanized mAb638 with G55A
B2: HuEM0004-38-21 (antibody, human IgG1, kappa, L234A L235A, V domains shown)
VH: B1 VH with L70M
VL: B1 VL
notes: humanized mAb638 with G55A
B3: HuEM0004-38-23 (antibody, human IgG1, kappa, L234A L235A, V domains shown)
VH: B1 VH with M48I
VL: B1 VL
notes: humanized mAb638 with G55A
B4: EM0004-38c (antibody, human IgG1, kappa, L234A L235A, V domains shown)
VH: QVQLQQPGTELVKPGASVKLSCKASGYTFTSFWMHWVKQRPGQGLEWIGNINPRNGATKYNEKFRSKVTLTADKTSSTAYMHLSSLTSEDSAVYYCAREDYDEIYYAMDSWGQGTSVTVSS
VL: QNVLTQSPAIMSASPGEKVTMTCSASSSVIYMYWFQQKPGSSPRVLIYDTSNLASGVPARFSGSGSGTSYSLTISRMEAEDAATYYCQQWSTYPLTFGAGTKLELKR
notes: chimeric mAb638; also called EM04-38c
B5: EM0004-38c1 (antibody, human IgG1, kappa, L234A L235A, name in Kabat numbering, V domains shown)
VH: B4 VH with N55Q
VL: B4 VL
notes: chimeric mAb638 variant; also called EM004-38c1
B6: EM0004-38c2 (antibody, human IgG1, kappa, L234A L235A, name in Kabat numbering, V domains shown)
VH: B4 VH with G56A
VL: B4 VL
notes: chimeric mAb638 variant

Changes are numbered by the printed parent chain. In names and notes the source's numbering stands.

The target in one assay is T1, human CD39 on the cell membrane …. The assay is described as follows: cell-based or functional assay.
Consider B1, for which the “cell-based CD39 ATPase inhibition assay (SK-MEL-28 cells), concentration of essentially complete inhibition” value was about 1 nM.
In the case of B2, the “cell-based CD39 ATPase inhibition assay (SK-MEL-28 cells), concentration of essentially complete inhibition” value is about 1 nM.
On the same count and under the same terms, under B3 stands about 1 nM.

A further assay concerns the target T2, human CD39 protein (recombinant). Nature of the assay: cell-based or functional assay.
With B4, the “ATPase inhibition IC50” value came to 24.2 nM and the “ATPase inhibition, inhibition %” value worked out at 107%.
As for B5, the “ATPase inhibition IC50” value was determined as 15.6 nM and the “ATPase inhibition, inhibition %” value was found to be 102%.
For B6 the same measures were 14.3 nM and 103%.

Another assay concerns the target T1, human CD39 on the cell membrane …. The assay is described as follows: cell-based or functional assay. The source holds these as a separate data set.
On to B1, for which the “IC50 (read off the curve), cell-surface hCD39 ATPase activity” value (“IC50 (read off the curve)” for short) is about 0.2 nM.
With B2, the “IC50 (read off the curve)” value is about 0.2 nM.
On to B3, for which the “IC50 (read off the curve)” value is about 0.2 nM.

The target in a further assay is T3, cynomolgus monkey CD39 on CHO-K1 cells. Nature of the assay: FACS on CHO-K1-cyno CD39 cells. The method, then: (§1) The ability of the purified antibodies to bind to cell membrane human CD39, cynomolgus monkey CD39, or mouse CD39 was determined by FACS analysis. CHO-K1 cells stably transfected to overexpress human CD39, cynomolgus monkey CD39, or mouse CD39 (CHO-K1-huCD39 cells, CHO-K1-cyCD39 cells, and CHOK1-muCD39 cells) were generated for use in this assay. Briefly, SK-MEL-28 melanoma cells (ATCC) or CD39 overexpressing stable CHO cell lines were resuspended in PBS containing 2% FBS (FACS buffer) and seeded at 1-5×10⁵ cells/well into U-bottomed plates. Anti-CD39 mAbs or isotype control antibodies diluted in FACS buffer were added to the wells and incubated for 1 hour at 4° C. After washing with FACS buffer, 1:1000 diluted Fluorescence-labeled secondary antibody (Life Technologies/ThermoFisher Scientific) were added and incubated for 30 min. at 4° C. Unbound secondary mAb was removed by washing with FACS buffer three times, and the samples were then read on a FACS instrument. The data were processed by GraphPad software.
(§2) Accordingly, a G55A mutation was introduced in the CDR-H2 in HuEM0004-38-17, -18, and -19 to generate HuEM0004-38-21 (SEQ ID NO:32 (VH) and SEQ ID NO:17 (VK)), HuEM0004-38-22 (SEQ ID NO:33 (VH) and SEQ ID NO:17 (VK)), and HuEM0004-38-23 (SEQ ID NO:34 (VH) and SEQ ID NO:17 (VK)). The three humanized anti-CD39 antibodies were characterized by FACS binding assay and for cell-based inhibition of ATPase activity.
Turning to B1, the EC50 was determined as 7.42 nM.
On the same count and under the same terms, under B2 stands 6.14 nM; under B3, 7.18 nM.

In a further assay the target is T1, human CD39 on the cell membrane …. Nature of the assay: FACS on CHO-K1-human CD39 cells. The protocol:
as §1, §2
In the case of B1, a half-maximal response (EC50) required 7.21 nM.
The same measure, in the same setting: under B2 stands 6.34 nM; under B3, 8.36 nM.

The target in another assay is T2, human CD39 protein (recombinant). The assay is described as follows: ELISA on coated human CD39 protein. The protocol: To determine if anti-CD39 mAbs bind to human CD39, ELISA plates were incubated overnight at 4° C. with human CD39 protein or mouse CD39 protein diluted in PBS, pH7.4 buffer at 1 μg/ml. Plates were washed four times in washing buffer (PBS containing 0.05% Tween 20), and blocked for 1 hour at 37° C. with 200 μl per well blocking buffer (1% BSA in PBS containing 0.05% Tween 20). After blocking buffer was removed, hybridoma supernatant or diluted purified Abs were added to the wells at 100 μl per well and incubated at 37° C. for 1 hour. The wells were washed four times with washing buffer, and anti-mouse HRP (for mouse anti-human CD39 Ab characterization) or anti-rat HRP (for rat anti-mouse CD39 Ab characterization) (Sigma) were 1:5000 diluted and added to the wells at 100 μl per well. The plates were incubated for 1 hour at 37° C. and washed four times in washing buffer. 100 μl of tetramethylbenzidine (TMB) chromogenic solution were added per well. Following color development, the reaction was stopped with 1N HCl, and absorbance at 450 nm was measured. The data were proceeded by GraphPad software.
Humanized antibodies HuEM04-38-6 to HuEM0004-38-20 and chimeric antibodies EM04-38c, EM004-38c1, and EM0004-38c2 were tested for CD39 specific binding by ELISA as described in Example 1.2 and for inhibition of protein-based ATPase activity as described in Example 1.3.
Consider B4, for which the concentration giving a half-maximal response (EC50) was 0.014 µg/mL.
As to B5, the EC50 stood at 0.023 µg/mL.
Regarding B6, the concentration for a half-maximal effect (EC50) was 0.016 µg/mL.

The target of another assay is T1, human CD39 on the cell membrane …. The assay is described as follows: FACS on SK-MEL-28 cells (endogenous human CD39). The method, then: as §1, §2
As for B1, the response was half-maximal at 4.71 nM (EC50).
The molecule B2 displayed an EC50 of 4.75 nM.
As for B3, the EC50 was 5.47 nM.

A further assay has as its target T4, huCD39-ECD-His. Nature of the assay: BLI (Octet RED96), antibody captured on AHC biosensor, antigen in solution. The protocol:
Anti-CD39 antibodies were characterized for affinities and binding kinetics using the Octet®RED96 biolayer interferometry system (Pall FortéBio LLC). Purified anti-CD39 antibodies were captured by Anti-Mouse IgG Fc Capture (AMC) biosensors or Anti-Human IgG Fc Capture (AHC) biosensors at a concentration of 100 nM for 30 seconds. Biosensors were then dipped into running buffer (1X pH7.2 PBS, 0.05% Tween 20, 0.1% BSA) for 60 seconds to check baseline. Binding was measured by dipping sensors into purified recombinant human CD39 protein, 3-fold serial diluted from 200 nM, for 120 seconds. Dissociation was followed by dipping sensors into running buffer for 600 seconds. The association and dissociation curves were fitted to a 1:1 Langmuir binding model using Fortebio Data Analysis software (Pall FortéBio LLC).
As to B1, binding was characterised by a dissociation constant (Kd) of 2.53 nM, the koff stood at 0.000348 s⁻¹ and the kon was 138000 M⁻¹ s⁻¹.
The molecule B2 returned a dissociation constant Kd of 2.28 nM, a koff of 0.000316 s⁻¹ and a kon of 139000 M⁻¹ s⁻¹.
B3: the Kd worked out at 2.55 nM, the off-rate constant (koff) was 0.000365 s⁻¹ and the kon was 143000 M⁻¹ s⁻¹.

These data come from patent US20220389111A1 (SHANGHAI EPIMAB BIOTHERAPEUTICS, published 2022).
